Data: the supplement of paper PMC10065799, “High-throughput profiling of sequence recognition by tyrosine kinases and SH2 domains using bacterial peptide display” (eLife, 2023)

How the values were obtained:
[1] = test system: AncSZ; experiment: phosphorylation enrichment, bacterial display (enrichment ratio); higher = better substrate or ligand; peptides without Tyr show the background
[2] = test system: c-Src; experiment: as above
[3] = target: MERTK (UniProt Q12866); experiment: as above
[4] = target: EPHB2 (UniProt P29323); experiment: as above
[5] = target: Hck (UniProt P08631); experiment: as above
[6] = target: FGFR3 (UniProt P22607); experiment: as above
[7] = target: Fes (UniProt P07332); experiment: as above
[8] = test system: c-Abl (mouse); experiment: as above
[9] = target: Jak2 (UniProt O60674); experiment: as above
[10] = target: Fyn (UniProt P06241); experiment: as above
[11] = target: FGFR1 (UniProt P11362); experiment: as above
[12] = test system: Fer (mouse); experiment: as above
[13] = target: EPHB1 (UniProt P54762); experiment: as above
[14] = target: SHP2-C SH2; experiment: SH2 binding enrichment of the phosphorylated peptide, bacterial display (enrichment ratio); higher = better substrate or ligand; peptides without Tyr show the background
[15] = target: c-Src SH2; experiment: as above
[16] = target: Grb2 SH2 (UniProt P62993); experiment: as above
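Wherever SH2 binding enrichment of the phosphorylated peptide, bacterial display is given: peptide library displayed on the E. coli surface as eCPX fusions, selected cells deep-sequenced, score is each peptide's frequency after selection divided by its frequency in the input.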
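Wherever phosphorylation enrichment, bacterial display is given: 11-residue human phosphosite peptides and single-mutation variants displayed on the E. coli surface, counted by deep sequencing, each peptide's frequency after selection divided by its frequency in the unselected input library; frequency after pTyr selection over input frequency; kinase dosed for 20-30% of maximal phosphorylation in three min.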

Sequence of FGFR1 (P11362 whole entry, looked up): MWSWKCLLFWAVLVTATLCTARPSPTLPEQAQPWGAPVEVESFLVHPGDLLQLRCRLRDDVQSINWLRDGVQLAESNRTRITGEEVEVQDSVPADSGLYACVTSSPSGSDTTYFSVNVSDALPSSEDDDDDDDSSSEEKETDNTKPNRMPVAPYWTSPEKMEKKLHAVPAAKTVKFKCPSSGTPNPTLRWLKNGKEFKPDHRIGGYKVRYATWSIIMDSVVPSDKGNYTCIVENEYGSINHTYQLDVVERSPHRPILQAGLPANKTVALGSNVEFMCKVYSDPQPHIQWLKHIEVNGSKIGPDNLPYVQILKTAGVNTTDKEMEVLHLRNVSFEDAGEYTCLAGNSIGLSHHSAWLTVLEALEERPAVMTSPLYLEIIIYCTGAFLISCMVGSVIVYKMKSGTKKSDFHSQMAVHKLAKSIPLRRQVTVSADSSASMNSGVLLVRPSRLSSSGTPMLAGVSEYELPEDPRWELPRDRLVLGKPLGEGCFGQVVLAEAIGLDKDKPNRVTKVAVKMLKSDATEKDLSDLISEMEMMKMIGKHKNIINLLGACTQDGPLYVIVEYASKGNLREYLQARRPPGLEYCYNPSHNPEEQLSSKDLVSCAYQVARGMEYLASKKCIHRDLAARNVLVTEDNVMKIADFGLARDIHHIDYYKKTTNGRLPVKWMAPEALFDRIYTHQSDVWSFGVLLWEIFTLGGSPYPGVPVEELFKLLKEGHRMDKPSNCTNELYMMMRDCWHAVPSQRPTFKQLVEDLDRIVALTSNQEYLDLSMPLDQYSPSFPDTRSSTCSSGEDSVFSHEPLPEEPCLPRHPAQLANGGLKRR
Sequence of Grb2 SH2 (P62993 whole entry, looked up, the tested form may be a part): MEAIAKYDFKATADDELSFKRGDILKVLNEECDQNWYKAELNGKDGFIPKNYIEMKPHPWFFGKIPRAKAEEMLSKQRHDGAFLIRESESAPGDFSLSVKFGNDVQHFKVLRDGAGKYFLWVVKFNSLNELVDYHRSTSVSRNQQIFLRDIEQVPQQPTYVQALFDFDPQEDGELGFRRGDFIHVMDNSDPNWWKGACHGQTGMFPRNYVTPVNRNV
Sequence of EPHB1 (P54762 whole entry, looked up): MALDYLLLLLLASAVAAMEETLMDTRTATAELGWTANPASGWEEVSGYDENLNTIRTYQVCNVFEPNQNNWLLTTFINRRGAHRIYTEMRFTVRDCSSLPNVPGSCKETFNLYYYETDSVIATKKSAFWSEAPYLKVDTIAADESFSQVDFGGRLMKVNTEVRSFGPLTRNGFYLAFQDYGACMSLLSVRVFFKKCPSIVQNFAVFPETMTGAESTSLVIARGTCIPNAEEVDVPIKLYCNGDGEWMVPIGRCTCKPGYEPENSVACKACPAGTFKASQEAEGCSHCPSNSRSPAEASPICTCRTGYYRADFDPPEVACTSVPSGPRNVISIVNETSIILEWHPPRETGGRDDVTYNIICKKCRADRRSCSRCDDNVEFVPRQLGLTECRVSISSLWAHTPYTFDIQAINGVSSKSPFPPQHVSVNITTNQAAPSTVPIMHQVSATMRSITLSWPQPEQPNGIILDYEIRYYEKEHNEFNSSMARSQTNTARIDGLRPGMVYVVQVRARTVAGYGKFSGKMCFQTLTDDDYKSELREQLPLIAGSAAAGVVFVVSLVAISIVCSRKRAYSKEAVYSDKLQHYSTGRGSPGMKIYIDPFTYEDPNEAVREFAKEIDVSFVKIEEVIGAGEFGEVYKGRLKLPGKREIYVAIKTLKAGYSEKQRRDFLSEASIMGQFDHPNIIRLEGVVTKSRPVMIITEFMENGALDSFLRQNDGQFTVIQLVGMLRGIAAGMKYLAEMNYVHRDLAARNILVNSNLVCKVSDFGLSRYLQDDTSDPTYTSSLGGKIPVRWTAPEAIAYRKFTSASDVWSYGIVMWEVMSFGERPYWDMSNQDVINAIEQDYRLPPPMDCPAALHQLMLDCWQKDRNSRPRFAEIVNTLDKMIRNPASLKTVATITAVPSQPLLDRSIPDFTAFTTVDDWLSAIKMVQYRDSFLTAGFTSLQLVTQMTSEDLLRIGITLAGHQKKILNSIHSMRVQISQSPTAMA
Sequence of Hck (P08631 whole entry, looked up): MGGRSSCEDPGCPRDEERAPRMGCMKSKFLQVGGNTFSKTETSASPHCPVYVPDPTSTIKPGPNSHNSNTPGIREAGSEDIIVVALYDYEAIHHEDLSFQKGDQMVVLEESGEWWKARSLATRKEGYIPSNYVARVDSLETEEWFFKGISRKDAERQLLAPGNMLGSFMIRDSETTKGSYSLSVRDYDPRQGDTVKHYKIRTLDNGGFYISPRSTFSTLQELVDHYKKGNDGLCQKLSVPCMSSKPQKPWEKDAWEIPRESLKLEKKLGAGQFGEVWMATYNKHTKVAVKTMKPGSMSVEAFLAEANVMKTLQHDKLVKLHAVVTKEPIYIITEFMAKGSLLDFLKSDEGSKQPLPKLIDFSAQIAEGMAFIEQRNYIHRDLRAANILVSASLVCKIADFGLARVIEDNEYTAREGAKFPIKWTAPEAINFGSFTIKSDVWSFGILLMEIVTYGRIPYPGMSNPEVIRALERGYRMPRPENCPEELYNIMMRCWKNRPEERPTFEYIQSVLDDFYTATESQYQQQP
Sequence of Jak2 (O60674 whole entry, looked up): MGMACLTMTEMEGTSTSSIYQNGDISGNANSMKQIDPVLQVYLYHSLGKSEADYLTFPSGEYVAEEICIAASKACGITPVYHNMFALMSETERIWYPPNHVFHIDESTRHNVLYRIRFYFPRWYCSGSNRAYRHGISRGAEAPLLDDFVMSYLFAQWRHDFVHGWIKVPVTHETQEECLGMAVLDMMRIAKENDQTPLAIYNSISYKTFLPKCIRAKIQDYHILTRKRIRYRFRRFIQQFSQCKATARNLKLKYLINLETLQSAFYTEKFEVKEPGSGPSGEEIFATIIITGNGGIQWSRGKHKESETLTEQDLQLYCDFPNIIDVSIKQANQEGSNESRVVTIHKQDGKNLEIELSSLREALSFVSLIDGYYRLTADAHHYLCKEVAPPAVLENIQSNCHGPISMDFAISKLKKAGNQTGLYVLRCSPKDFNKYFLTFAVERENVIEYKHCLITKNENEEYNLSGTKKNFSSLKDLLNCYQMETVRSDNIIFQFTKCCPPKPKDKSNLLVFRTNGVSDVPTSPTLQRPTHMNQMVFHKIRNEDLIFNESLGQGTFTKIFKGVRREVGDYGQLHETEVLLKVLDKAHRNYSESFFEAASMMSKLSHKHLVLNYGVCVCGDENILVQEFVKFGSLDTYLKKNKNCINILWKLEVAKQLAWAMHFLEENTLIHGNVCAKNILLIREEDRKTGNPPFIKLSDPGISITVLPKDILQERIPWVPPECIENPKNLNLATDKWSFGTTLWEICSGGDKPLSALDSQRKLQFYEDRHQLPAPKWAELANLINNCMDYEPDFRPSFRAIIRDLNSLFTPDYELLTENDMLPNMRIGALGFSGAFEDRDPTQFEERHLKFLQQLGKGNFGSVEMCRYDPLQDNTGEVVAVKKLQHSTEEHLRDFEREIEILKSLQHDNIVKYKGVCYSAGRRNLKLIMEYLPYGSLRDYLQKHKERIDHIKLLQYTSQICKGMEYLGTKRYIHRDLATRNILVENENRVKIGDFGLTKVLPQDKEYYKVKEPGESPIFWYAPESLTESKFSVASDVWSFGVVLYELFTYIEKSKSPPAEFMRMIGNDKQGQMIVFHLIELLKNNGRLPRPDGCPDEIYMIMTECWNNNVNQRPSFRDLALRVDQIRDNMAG
Sequence of MERTK (Q12866 whole entry, looked up): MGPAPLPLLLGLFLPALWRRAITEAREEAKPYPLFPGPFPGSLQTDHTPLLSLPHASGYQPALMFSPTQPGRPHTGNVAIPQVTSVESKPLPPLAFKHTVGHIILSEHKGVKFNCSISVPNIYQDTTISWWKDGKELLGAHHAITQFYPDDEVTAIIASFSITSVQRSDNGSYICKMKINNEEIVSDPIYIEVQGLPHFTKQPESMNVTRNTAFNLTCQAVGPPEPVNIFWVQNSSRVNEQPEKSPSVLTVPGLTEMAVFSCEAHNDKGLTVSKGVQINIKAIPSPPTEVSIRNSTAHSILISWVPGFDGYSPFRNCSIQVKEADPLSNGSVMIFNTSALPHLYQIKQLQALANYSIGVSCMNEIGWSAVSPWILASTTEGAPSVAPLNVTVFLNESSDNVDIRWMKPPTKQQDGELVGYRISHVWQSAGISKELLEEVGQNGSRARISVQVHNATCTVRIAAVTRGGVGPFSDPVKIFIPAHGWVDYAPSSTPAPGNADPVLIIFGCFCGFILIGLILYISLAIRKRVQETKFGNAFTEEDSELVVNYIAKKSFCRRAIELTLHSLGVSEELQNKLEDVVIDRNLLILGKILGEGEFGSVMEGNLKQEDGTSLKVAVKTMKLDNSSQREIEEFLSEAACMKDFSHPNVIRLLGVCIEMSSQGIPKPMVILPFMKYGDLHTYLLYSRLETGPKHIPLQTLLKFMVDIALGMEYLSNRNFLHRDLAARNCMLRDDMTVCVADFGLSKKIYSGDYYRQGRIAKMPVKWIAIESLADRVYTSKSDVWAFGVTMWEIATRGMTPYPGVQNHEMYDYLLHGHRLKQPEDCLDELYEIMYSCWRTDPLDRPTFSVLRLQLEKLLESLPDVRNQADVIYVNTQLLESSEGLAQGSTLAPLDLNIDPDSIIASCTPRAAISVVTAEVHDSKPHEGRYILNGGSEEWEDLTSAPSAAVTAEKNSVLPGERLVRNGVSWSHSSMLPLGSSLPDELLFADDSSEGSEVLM

Sequence	phosphorylation enrichment [1]	phosphorylation enrichment [2]	phosphorylation enrichment [3]	phosphorylation enrichment [4]	phosphorylation enrichment [5]	phosphorylation enrichment [6]	phosphorylation enrichment [7]	phosphorylation enrichment [8]	phosphorylation enrichment [9]	phosphorylation enrichment [10]	phosphorylation enrichment [11]	phosphorylation enrichment [12]	phosphorylation enrichment [13]	SH2 binding enrichment [14]	SH2 binding enrichment [15]	SH2 binding enrichment [16]
KKIMGYSIRTI [IDS_Y490_I485K]	0.625	0.364	0.366	0.405	0.387	0.332	0.571	0.538	0.537	0.304	0.392	0.394	0.41	1.2	1.32	1.67
KLIETCFSKNF [PLP1_Y50_Y50C_YF]	1.14	0.476	0.405	0.523	0.492	0.725	1.23	0.826	1.06	0.413	0.47	0.504	0.581	0.561	0.482	0.849
KLNNEHLELNY [MME_Y497_Y497H]	0.775	0.417	0.395	0.452	0.421	0.517	0.768	0.58	0.619	0.471	0.437	0.445	0.402	0.734	0.573	0.934
KLQQWYREHRS [GPI_Y17]	0.6	0.384	0.355	0.399	0.44	0.475	0.613	0.548	0.567	0.382	0.434	0.392	0.37	1.12	1.26	1.37
KLSHLYQDHMQ [WNT5A_Y86_C83S]	0.794	0.406	0.437	0.579	0.455	0.703	0.844	0.616	0.712	0.442	0.439	0.647	0.462	0.772	0.573	0.832
KLVDVYVNDAF [PGK1_Y161_G158V]	0.895	0.435	0.425	0.5	0.554	0.626	0.81	0.387	0.661	0.574	0.635	0.496	0.575	0.832	0.764	1.44
KMATAYIRSMS [BCO1_Y264_R267S]	0.564	0.385	0.396	0.374	0.388	0.369	0.6	0.516	0.518	0.417	0.397	0.337	0.409	0.59	0.464	1.08
KMTGRYEMFAR [UPB1_Y362_YF]	0.808	0.451	0.633	0.556	0.505	0.53	0.815	0.571	0.586	0.386	0.499	0.438	0.496	1.07	1.75	1.36
KPPPTYESEEE [BRD4_Y599]	1.65	0.767	0.552	0.711	0.641	0.775	1.88	1.18	1.39	0.664	0.618	0.753	0.653	0.719	0.728	0.977
KPVDTYFDSTR [DYNC2H1_Y2230_M2227V_YF]	0.925	0.43	0.54	0.556	0.565	0.73	0.997	0.611	0.723	0.567	0.624	0.472	0.668	0.693	0.422	0.83
KQELVYPNKKL [OPTN_Y356_T357P]	0.576	0.349	0.374	0.358	0.293	0.417	0.743	0.561	0.443	0.324	0.356	0.323	0.33	0.505	0.471	0.811
KQFWRYFAGNL [SLC25A4_Y112]	0.944	0.507	0.542	0.53	0.449	0.598	1.03	0.764	1.04	0.32	0.461	0.488	0.777	0.972	0.899	1.09
KREPQYSSHSS [SIPA1L3_Y1265_G1261R]	0.559	0.506	0.452	0.306	0.362	0.376	0.629	0.486	0.43	0.338	0.377	0.401	0.423	0.885	0.549	0.973
KSFDMYSGDVM [FAM3D_Y122_A118S]	0.998	1.1	0.914	1.22	1.13	0.667	0.856	0.609	0.698	1.06	0.654	0.589	1.6	0.674	0.613	0.803
KTTILYKLKLG [ARF1_Y35]	1.01	0.336	0.376	0.411	0.401	0.688	1	0.719	0.909	0.358	0.404	0.426	0.41	0.973	0.865	1.33
KVASVYEAPGF [NT5C_Y65]	0.973	5.05	2.59	5.62	9.28	0.583	0.903	9.41	0.609	7.05	0.481	6.87	3.77	0.906	0.645	0.948
KVGNGYISAAE [CALM2_Y100_D96V]	0.619	0.391	0.42	0.468	0.393	0.588	0.65	0.538	0.485	0.337	0.456	0.476	0.4	0.546	0.53	0.892

Sequence	phosphorylation enrichment [1]	phosphorylation enrichment [2]	phosphorylation enrichment [3]	phosphorylation enrichment [4]	phosphorylation enrichment [5]	phosphorylation enrichment [6]	phosphorylation enrichment [7]	phosphorylation enrichment [8]	phosphorylation enrichment [9]	phosphorylation enrichment [10]	phosphorylation enrichment [11]	phosphorylation enrichment [12]	phosphorylation enrichment [13]	SH2 binding enrichment [14]	SH2 binding enrichment [15]	SH2 binding enrichment [16]
KVPAIYGVGTR [CPS1_Y162_D165G]	0.47	2.44	0.527	0.391	5.68	0.402	0.576	0.923	0.562	2.27	0.362	0.377	0.424	0.615	0.699	0.948
KVQVSYKGETK [HSPA1A_Y107]	0.608	0.352	0.387	0.449	0.346	0.432	0.511	0.85	0.428	0.426	0.429	0.378	0.442	0.656	0.493	0.875
KWRGQYDVAIR [BTK_Y425_K430R]	0.96	0.389	0.341	0.454	0.451	0.533	0.698	0.539	0.461	0.446	0.426	0.512	0.498	1.57	1.74	1.35
KWTVDYLSQVG [TYW5_Y48]	0.953	0.466	0.373	0.494	0.462	0.63	1.05	0.635	0.887	0.443	0.605	0.391	0.602	0.766	0.549	0.886
LAARFYNWVCF [FLT4_Y1231_S1235C_YF]	1.87	1.21	1.17	1.03	0.967	2.11	2.8	1.39	2.59	0.849	1.65	2.79	1.33	0.982	1.02	1.04
LAGRFYALKSM [CKB_Y174_YF]	1.86	0.461	0.666	0.573	0.509	0.991	1.61	1.18	1.32	0.463	0.479	0.46	0.677	1.11	1.12	1.23
LARDMYDKEFF [MET_Y1230_YF]	0.685	0.382	0.396	0.564	0.539	0.596	0.945	0.519	0.702	0.507	0.517	0.464	0.515	0.643	0.506	0.93
LARDMYDKEYY [MET_Y1230]	1.83	0.673	0.449	0.627	0.765	0.973	1.43	0.652	1.41	0.624	0.921	0.71	0.815	0.614	1.37	0.881
LDAFIYDAAVL [GRIN2A_Y730]	1.18	6.55	3.04	3	7.32	0.868	1.53	6.28	0.827	9.56	0.879	20.3	2.63	0.935	0.519	1.14
LDFNEYFRGLN [HPRT1_Y198_D201G_YF]	1.29	0.595	0.714	1.41	0.873	0.933	1.45	0.799	1.92	0.746	0.788	0.62	0.832	1.08	0.862	1.17
LEQGEYALRSH [HADHB_Y244_D242G]	0.935	0.681	0.567	0.556	0.697	0.505	0.993	0.815	0.855	0.747	0.736	0.564	0.521	0.788	0.55	0.752
LEQQKYTVTID [IKBKB_Y199_V203I]	1.27	0.569	0.602	0.81	0.682	0.975	1.57	0.696	1.02	0.638	0.75	0.518	0.932	0.752	0.486	0.826
LERYIYNREEL [HLA-DPB1_Y59_F64L]	0.713	1.93	0.371	0.407	1.55	0.58	0.944	0.777	0.731	0.987	0.41	0.444	0.653	0.709	0.852	0.914
LFEDCYLLGTS [ASS1_Y87_R86C_YF]	2.1	1.6	0.442	0.716	0.58	1.15	1.5	1.17	1.39	1.01	0.895	0.752	0.572	0.924	0.647	1.24
LFNQDYPIHCV [GATM_Y227_S231C_YF]	1.43	0.33	0.729	0.889	0.555	2.52	1.49	1.11	1.17	0.777	4.54	1.03	1.32	0.806	0.407	0.446
LGGAMYYLEAE [PKHD1_Y452]	1.42	2.14	1.74	1.25	1.4	2.46	1.61	1.2	1.42	2.54	2.22	0.667	1.62	0.657	0.841	0.811
